Patent US20090324590A1

Target: recombinant wild type myostatin
Assay: cell-based or functional assay

myostatin antagonist 300 (amino acids 267-300 of bovine myostatin with N-terminal and C-terminal tags) (peptide)
p-FoxO1 expression (Western blot, normalised to total FoxO1) in C2C12 myotubes; myostatin 6 ug/mL with 300 at 30, 60, 90 or 120 ug/mL for 24 hours; concentration of 300 giving maximal rescue: 90 µg/mL
